In paper PMC2132719:

Biological target: NLS-HSA (SV-40 large T antigen NLS peptide coupled to human serum albumin) (human | SV-40) (UniProt P02768)
Experiment: pull-down

With Xenopus Nup62 (natural protein) the percent of the protein in the extract bound was less than 1%.
